Test results: patent US20140255407A1 (MacroGenics, published 2014)

Key:
Human B7-H3 = molecular target: T1, Human B7-H3 (human, UniProt Q5ZPR3 29-466); assay: SPR
T1 chain: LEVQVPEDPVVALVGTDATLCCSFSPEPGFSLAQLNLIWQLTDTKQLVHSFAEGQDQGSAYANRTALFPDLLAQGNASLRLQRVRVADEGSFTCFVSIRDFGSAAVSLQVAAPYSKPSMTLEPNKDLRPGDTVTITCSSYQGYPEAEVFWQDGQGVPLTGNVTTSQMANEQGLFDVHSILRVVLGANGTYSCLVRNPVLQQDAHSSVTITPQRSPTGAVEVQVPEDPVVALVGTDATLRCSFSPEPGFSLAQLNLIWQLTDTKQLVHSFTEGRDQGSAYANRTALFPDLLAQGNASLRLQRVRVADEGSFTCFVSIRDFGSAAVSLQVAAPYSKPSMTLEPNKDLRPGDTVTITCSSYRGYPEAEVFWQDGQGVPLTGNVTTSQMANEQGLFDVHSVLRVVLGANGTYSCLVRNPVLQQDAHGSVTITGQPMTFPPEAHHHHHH

Canine B7-H3 = molecular target: T2, Canine B7-H3; assay: SPR
T2 chain: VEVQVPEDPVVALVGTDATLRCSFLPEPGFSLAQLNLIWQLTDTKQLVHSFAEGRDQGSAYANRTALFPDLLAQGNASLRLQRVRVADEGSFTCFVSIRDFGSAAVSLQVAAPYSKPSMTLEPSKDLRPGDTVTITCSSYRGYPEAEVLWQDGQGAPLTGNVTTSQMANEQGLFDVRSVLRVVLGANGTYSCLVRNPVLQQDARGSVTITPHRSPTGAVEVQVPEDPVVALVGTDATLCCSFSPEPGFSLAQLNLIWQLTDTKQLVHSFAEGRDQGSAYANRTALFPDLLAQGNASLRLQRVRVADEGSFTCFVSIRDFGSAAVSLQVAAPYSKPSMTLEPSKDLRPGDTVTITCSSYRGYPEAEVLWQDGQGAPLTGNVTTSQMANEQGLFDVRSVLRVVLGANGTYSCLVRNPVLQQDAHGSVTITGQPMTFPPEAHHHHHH

[1] = molecular target: T3, soluble human B7-H3 with 6xHis tag at the carboxy terminus (human, UniProt Q5ZPR3 29-466); assay: SPR
T3 chain: T1 chain

[2] = molecular target: T4, soluble canine B7-H3 with 6xHis tag at the carboxy terminus; assay: SPR
T4 chain: T2 chain

[3] = molecular target: T5, soluble human B7-H3 with 6xHis tag at the carboxy terminus (human, UniProt Q5ZPR3 29-466); assay: ELISA and SPR on soluble human B7-H3-His
T5 construct: extracellular domain; also called hB7-H3; human B7H3(4Ig)-His
T5 sequence: T1 chain
Description: Antibodies hBRCA84D and hBRCA69D were tested in an ELISA for binding to canine B7-H3. Briefly, soluble human B7-H3 and canine B7-H3 were expressed in CHO cells. Each soluble molecule was engineered to express a 6×His tag at the carboxy terminus to aid in purification of the expressed protein. The molecules were purified by nickel column chromatography using standard techniques. ELISA plates were coated with the soluble B7-H3 and allowed to dry. The plates were washed and blocked using standard ELISA techniques. The wells were probed with either hBRCA84D, hBRCA69D or a control hIgG. Secondary detection reagent was added and binding was determined As shown in FIG. 1A (hBRCA84D) and FIG. 1B (hBRCA69D), the antibodies were able to bind to soluble canine B7-H3 (cB7-H3). To determine binding affinity of the hBRCA84D and hBRCA69D antibodies to soluble canine B7-H3, SPR analysis was conducted. As shown in FIGS. 1C and 1D (hBRCA84D) and FIGS. 1E and 1F (BRCA69D) the binding affinities are similar to the binding of the antibodies to soluble human B7-H3 (shown in FIG. 1A and FIG. 1B, respectively).

B1: hBRCA84D (antibody, V domains shown)
VH: EVQLVESGGGLVQPGGSLRLSCAASGFTFSSFGMHWVRQAPGKGLEWVAYISSDSSAIYYADTVKGRFTISRDNAKNSLYLQMNSLRDEDTAVYYCGRGRENIYYGSRLDYWGQGTTVTVSS
VL: DIQLTQSPSFLSASVGDRVTITCKASQNVDTNVAWYQQKPGKAPKALIYSASYRYSGVPSRFSGSGSGTDFTLTISSLQPEDFATYYCQQYNNYPFTFGQGTKLEIKR
A Kd (Human B7-H3) of 45 nM and a Kd (Canine B7-H3) of 39 nM were found for B1 in this work.

B2: hBRCA69D (humanized antibody BRCA69D) (antibody, V domains shown)
VH: QVQLVQSGAEVKKPGASVKVSCKASGYTFTSYWMQWVRQAPGQGLEWMGTIYPGDGDTRYTQKFKGRVTITADKSTSTAYMELSSLRSEDTAVYYCARRGIPRLWYFDVWGQGTTVTVSS
VL: DIQMTQSPSSLSASVGDRVTITCRASQDISNYLNWYQQKPGKAPKLLIYYTSRLHSGVPSRFSGSGSGTDFTLTISSLQPEDIATYYCQQGNTLPPTFGGGTKLEIK
notes: Residue limits are my derivation
For B2, the Kd [1] was 8.8 nM, the Kd [2] was 8.4 nM and the binding result [3] was “binds”.
